# Biological target: Human CAIX (carbonic anhydrase IX) (human) (UniProt Q16790)
# Assay: ELISA screening, biotinylated human CAIX 0.25 ug/ml, negative control wells
substance,measurement,value
negative control of the ELISA screening of the maturated library (designed binder),absorbance at 450 nm,0.1 AU
